Assay results from patent US11198713B2, “Agents modulating beta-catenin functions and methods thereof” (FOG PHARMACEUTICALS, INC., priority 2017, dated 2021).
In brackets after ≈: the same amount, converted by molar mass. Read-outs that look alike come from different tables or passages of the source. Bridge positions count the residues as written; N and C are the ends. Square brackets hold non-standard residues; d marks the D form. MB = Monomer B = PyrS, Alloc-pyrrolidine stapling residue (allyl carbamate on pyrrolidine N); R8 = C=CCCCCCC[C@@](C)(N)C(=O)O

Experiments:
[1] = biological target: T1, biotinylated beta-catenin (Homo sapiens, UniProt P35222); assay: Surface Plasmon Resonance (Biacore); format: binding
T1 sequence (P35222 1-781): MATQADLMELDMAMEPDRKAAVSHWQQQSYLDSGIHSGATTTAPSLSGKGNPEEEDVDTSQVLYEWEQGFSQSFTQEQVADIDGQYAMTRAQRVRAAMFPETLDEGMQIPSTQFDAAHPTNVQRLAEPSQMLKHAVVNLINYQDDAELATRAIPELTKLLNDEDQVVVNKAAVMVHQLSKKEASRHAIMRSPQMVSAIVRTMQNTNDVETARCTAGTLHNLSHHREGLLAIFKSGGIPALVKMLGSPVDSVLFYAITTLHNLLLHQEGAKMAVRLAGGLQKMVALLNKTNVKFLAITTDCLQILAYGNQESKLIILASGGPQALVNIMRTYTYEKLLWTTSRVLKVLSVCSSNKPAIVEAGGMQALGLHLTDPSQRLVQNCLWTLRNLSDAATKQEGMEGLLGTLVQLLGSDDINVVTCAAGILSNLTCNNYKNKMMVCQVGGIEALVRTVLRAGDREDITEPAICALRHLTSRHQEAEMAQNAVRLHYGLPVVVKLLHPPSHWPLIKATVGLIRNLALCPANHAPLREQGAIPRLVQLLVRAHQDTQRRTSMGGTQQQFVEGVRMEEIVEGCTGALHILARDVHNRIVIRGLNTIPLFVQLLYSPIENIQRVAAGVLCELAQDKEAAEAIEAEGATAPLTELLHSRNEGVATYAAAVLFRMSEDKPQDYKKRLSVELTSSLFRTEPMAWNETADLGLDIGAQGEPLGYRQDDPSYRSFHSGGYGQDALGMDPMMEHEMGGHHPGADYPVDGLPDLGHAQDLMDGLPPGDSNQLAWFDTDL
Experimental: Additionally or alternatively, binding to beta-catenin may be measured by Surface Plasmon Resonance. In an exemplary assay, approximately 6 nmol dried peptide diluted in buffer (50 mM Tris pH 8.0, 300 mM NaCl, 2% glycerol, 0.5 mM TCEP, 0.5 mM EDTA, 0.005% Tween-20, 1 mg/mL CM Dextran, 0.02% w/v sodium azide) was assayed on a Biacore X100 using the Biacore Biotin CAPture Kit (GE Healthcare) and biotinylated beta-catenin. Results were analyzed using the Biacore X100 Evaluation Software. […] FPO217c (Isomer 2) bound to the armadillo domain of β-catenin with a Kd of 2 nM.

Plasma PK in rats = format: in vivo; details: rat, plasma; IV 0.5 mg/kg, male Sprague-Dawley rats
Experimental: (§1) FIG. 6. Exemplary pharmacokinetic properties. Peptides were formulated in 10% DMSO:90% saline and dosed by IV at 0.5 mg/kg per compound in three male Sprague-Dawley rats. Serial bleed time-points were taken at 2 min, 6 min, 10 min, 15 min, 30 min, 1, 2, 4, 6, 8, 12 and 24 h and analyzed by quantitative LC/MS using a Thermo Q-Exactive Focus LC/MS/MS. Samples were prepared by protein precipitation with MeOH. Data were fit to a two-compartment model.
as §1, with “Various technologies can be utilized to assess properties of provided agents, e.g., stapled peptides, in accordance with the present disclosure. In some embodiments, plasma PK methods are used to assess” for “FIG. 6. Exemplary”, “In an exemplary assay, peptides” for “Peptides”, “model. […] Exemplary data are presented, e.g., in FIG. 6.” for “model.”

[2] = biological target: T2, full-length beta-catenin (Axin site) (Homo sapiens, UniProt P35222); assay: Competition fluorescence polarization assay (Axin site probe); format: binding; details: competition fluorescence polarization, Table 2; read-out: in vitro FP EC50
T2 construct: 15 nM full-length beta-catenin, 20 nM FITC labeled peptide in buffer
T2 sequence (P35222 1-781): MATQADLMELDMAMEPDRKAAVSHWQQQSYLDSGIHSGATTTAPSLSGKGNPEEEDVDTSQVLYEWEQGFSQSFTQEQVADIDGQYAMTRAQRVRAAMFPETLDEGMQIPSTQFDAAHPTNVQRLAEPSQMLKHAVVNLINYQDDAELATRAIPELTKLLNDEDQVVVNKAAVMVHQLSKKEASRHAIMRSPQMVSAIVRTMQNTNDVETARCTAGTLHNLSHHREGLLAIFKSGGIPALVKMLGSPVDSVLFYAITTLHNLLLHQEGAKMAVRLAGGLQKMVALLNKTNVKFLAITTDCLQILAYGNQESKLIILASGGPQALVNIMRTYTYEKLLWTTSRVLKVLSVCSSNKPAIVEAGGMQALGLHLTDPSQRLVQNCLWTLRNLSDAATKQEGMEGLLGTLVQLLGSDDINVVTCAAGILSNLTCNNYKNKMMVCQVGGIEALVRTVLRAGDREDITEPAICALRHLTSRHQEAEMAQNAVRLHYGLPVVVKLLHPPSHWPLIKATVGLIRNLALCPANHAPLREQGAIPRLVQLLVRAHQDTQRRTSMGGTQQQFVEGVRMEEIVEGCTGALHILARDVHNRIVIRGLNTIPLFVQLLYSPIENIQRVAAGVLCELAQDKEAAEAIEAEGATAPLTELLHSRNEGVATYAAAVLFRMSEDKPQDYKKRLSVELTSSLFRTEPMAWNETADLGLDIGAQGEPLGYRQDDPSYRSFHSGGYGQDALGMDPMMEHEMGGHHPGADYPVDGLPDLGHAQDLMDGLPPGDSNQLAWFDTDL
Outline: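 Competition FP: 15 nM full-length β-catenin pre-incubated 5 min with 20 nM FITC-labelled stapled Axin-site peptide, then titrated peptide added (3-fold series from 5 μM) for 15 min in the dark. Buffer 50 mM Tris pH 8.0, 250 mM NaCl, 2% glycerol, 0.5 mM EDTA; duplicate reads.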

[3] = Solubility in DPBS (A280 of supernatant); format: physicochemical; details: DPBS
Outline: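 Dried peptide reconstituted in DPBS in triplicate, vortexed, sonicated and centrifuged. Supernatant A280 measured; concentration calculated using the tryptophan extinction coefficient.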

[4] = biological target: T3, biotinylated beta-catenin (UniProt P35222 134-665, limits assumed, biotinylated (site not stated)); assay: SPR (Biacore, biotinylated beta-catenin)
T3 construct: also called beta-catenin (SPR); armadillo domain of β-catenin
T3 sequence (looked up): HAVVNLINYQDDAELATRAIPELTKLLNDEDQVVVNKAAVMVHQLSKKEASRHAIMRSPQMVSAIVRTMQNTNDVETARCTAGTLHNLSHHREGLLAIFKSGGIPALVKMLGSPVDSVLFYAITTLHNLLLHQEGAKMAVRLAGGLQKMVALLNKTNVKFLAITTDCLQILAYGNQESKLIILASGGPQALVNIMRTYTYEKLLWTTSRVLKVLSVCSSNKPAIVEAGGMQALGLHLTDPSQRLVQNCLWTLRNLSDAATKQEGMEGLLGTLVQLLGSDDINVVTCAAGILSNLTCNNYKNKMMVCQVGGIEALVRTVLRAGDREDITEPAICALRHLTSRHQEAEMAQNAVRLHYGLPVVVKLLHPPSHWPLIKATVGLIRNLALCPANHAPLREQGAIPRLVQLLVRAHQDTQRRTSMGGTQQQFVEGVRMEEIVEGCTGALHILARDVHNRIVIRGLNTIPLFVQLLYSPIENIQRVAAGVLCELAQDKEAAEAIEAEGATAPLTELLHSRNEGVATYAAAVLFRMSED
Experimental: (§2) Additionally or alternatively, binding to beta-catenin may be measured by Surface Plasmon Resonance. In an exemplary assay, approximately 6 nmol dried peptide diluted in buffer (50 mM Tris pH 8.0, 300 mM NaCl, 2% glycerol, 0.5 mM TCEP, 0.5 mM EDTA, 0.005% Tween-20, 1 mg/mL CM Dextran, 0.02% w/v sodium azide) was assayed on a Biacore X100 using the Biacore Biotin CAPture Kit (GE Healthcare) and biotinylated beta-catenin. Results were analyzed using the Biacore X100 Evaluation Software.

full-length beta-catenin [5] = biological target: T4, full-length beta-catenin (UniProt P35222 2-781, limits assumed); assay: competition FP, grade of FP EC50 (+++: <=100 nM)
T4 construct: mature; also called full-length ß-Catenin; β-catenin
T4 sequence (looked up): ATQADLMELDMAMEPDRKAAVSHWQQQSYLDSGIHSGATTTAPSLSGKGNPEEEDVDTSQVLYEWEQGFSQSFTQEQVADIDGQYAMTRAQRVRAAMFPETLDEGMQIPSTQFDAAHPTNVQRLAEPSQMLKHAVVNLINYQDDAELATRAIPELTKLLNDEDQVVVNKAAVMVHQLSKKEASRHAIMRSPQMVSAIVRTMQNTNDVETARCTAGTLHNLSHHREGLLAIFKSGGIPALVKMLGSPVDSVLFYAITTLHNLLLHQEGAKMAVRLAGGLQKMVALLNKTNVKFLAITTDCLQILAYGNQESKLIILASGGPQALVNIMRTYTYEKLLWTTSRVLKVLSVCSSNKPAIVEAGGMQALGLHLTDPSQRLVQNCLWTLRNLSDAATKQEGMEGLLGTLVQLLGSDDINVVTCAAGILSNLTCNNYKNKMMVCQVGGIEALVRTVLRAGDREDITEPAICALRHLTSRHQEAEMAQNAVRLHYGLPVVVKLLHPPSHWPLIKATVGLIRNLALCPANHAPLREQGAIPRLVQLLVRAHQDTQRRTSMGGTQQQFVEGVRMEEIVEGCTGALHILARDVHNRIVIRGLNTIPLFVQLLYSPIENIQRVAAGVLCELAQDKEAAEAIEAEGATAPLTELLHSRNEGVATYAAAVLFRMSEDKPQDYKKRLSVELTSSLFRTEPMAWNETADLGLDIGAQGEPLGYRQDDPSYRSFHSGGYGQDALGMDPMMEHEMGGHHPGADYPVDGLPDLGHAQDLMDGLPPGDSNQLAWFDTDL
Outline: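 Compound 3-fold serially diluted from 5 µM in Tris pH 8.0, 250 mM NaCl buffer, added to premixed 15 nM full-length β-catenin and 20 nM FITC-labelled stapled axin-site peptide probe. Incubated 15 min in the dark, polarization read in duplicate.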

full-length beta-catenin [6] = biological target: T4, full-length beta-catenin; assay: competition FP
Experimental: (§3) In some embodiments, a competition fluorescence polarization assay is used to assess binding of provided compounds to beta-catenin. In an exemplary procedure, solutions of provided compounds, e.g., provided stapled peptides, were prepared in a buffer (e.g., 50 mM Tris pH 8.0, 250 mM NaCl, 2% glycerol, 0.5 mM EDTA, 0.02% w/v sodium azide) using a 3-fold serial dilution from 5 µM. Probe solution (15 nM full-length ß-Catenin, 20 nM FITC labeled peptide in buffer) was prepared and incubated for a period of time, e.g., 5 minutes, and the a volume, e.g., 40 µL per well plated in suitable plate, e.g., a black polystyrene 384-well plate (Corning). Equal volume of the serial diluted peptide was added to the plate and incubated protected from light for 15 minutes prior to read. Reads were performed on a Spectramax M5 (Molecular Devices) in duplicate. Suitable probe was FITC-PEG1-PQ-S5-ILD-S5-HVRRVWR (SEQ ID NO: 1) (hydrocarbon staple formed by two S5 via olefin metathesis) and/or FITC-bA-PQ-S5-ILD-S5-HVRRVWR (SEQ ID NO: 3) (hydrocarbon staple formed by two S5 via olefin metathesis). […] Another peptide, FPO217c (Ac-AR_8ILDAHIM$B5$RVW (SEQ ID NO: 280), with N-terminal proline removed and valine replaced with isoleucine compared to FP0025c) was prepared.

full-length beta-catenin [7] = biological target: T4, full-length beta-catenin; assay: Axin competition fluorescence polarization; 15 nM full-length beta-catenin, 20 nM FITC-StAx-33 probe displaced by titrated peptide
[8] = biological target: T3, biotinylated beta-catenin; assay: Table 3 'Binding Kd (nM)'; method not stated there (SPR in Example 2)
Experimental: as §2

full-length beta-catenin [9] = biological target: T4, full-length beta-catenin; assay: competition FP, grade of FP EC50 (+: 500-5000 nM); competition FP vs FITC probe, 15 nM full-length beta-catenin, peptide diluted from 5 µM; grade + (500-5000 nM EC50)
Experimental: as §3

Kd [4] [nM]	FP EC50 (full-length beta-catenin [5]) [nM]	EC50 (read off the curve) (full-length beta-catenin [7]) [nM]	Kd [8] [nM]	FP EC50 (full-length beta-catenin [9]) [nM]	other results	Molecule
					Kd ([1]; Biacore, biotinylated beta-catenin, read-out: Kd): 2 nM; Kd ([1]; Table 3 Part A, read-out: Binding Kd): 4 nM; half-life (Plasma PK in rats): > 1 h; EC50 [2]: < 100 nM; solubility ([3]; Table 2, read-out: Solubility): 7 µM (≈ 11.1 µg/mL); solubility ([3]; Table 3 Part A, read-out: Solubility in DPBS): 12 µM (≈ 19 µg/mL)	CC[C@H](C)[C@@H]1NC(=O)[C@H](Cc2c[nH]cn2)NC(=O)[C@H](C)NC(=O)[C@H](CC(=O)O)NC(=O)[C@H](CC(C)C)NC(=O)[C@H]([C@@H](C)CC)NC(=O)[C@](C)(NC(=O)[C@H](C)NC(C)=O)CCCCCCC=CCOC(=O)N2CC[C@@](C(=O)N[C@@H](CCCNC(=N)N)C(=O)N[C@H](C(=O)N[C@@H](Cc3c[nH]c4ccccc34)C(N)=O)C(C)C)(C2)NC1=O (single isomer, unassigned) [FPO217c Isomer 2, Ac-AR8ILDAHIMBRVW (SEQ ID NO: 280)]
2	≤ 100	~70	4		fold better potency than FP0217c Isomer 1 (full-length beta-catenin [6]): > 10 fold	Ac-A[R8]ILDAHI[MB]RVW-NH2 (staple 2-9; also: Isomer 2, staple olefin E/Z not assigned, also called FPO217c isomer 2; FP00217c Isomer 2) [FP0217c Isomer 2]
				500 to 5000		AXILDAHIXRVW (not fully specified; Ac-A-R6-I-L-D-A-H-I-MF-R-V-W-NH2; amino staple R6/MF) [FP0502a]
				500 to 5000		AXILDAHIXRVW (not fully specified; Ac-A-MI-I-L-D-A-H-I-S5-R-V-W-NH2; amino staple MI/S5) [FP0506a]
4	≤ 100	~60	4			AXILDAHIXRVW (not fully specified; Ac-A-MG-I-L-D-A-H-I-MB-R-V-W-NH2; carbamate staple MG/MB) [FP0597c]
